Earlier results on two substances are cited in publication PMC3505813.

As a reminder, the pKd is the negative decadic logarithm of the Kd, by convention in mol/L.

Data set [1] has as its target aminopeptidase N (APN) (Homo sapiens) (UniProt P15144).
In a further data set the target is VCAM-1 (Homo sapiens) (UniProt P19320).

pKd: −log10 of the molar value.

Chain of UniProt P19320 (P19320 25-698): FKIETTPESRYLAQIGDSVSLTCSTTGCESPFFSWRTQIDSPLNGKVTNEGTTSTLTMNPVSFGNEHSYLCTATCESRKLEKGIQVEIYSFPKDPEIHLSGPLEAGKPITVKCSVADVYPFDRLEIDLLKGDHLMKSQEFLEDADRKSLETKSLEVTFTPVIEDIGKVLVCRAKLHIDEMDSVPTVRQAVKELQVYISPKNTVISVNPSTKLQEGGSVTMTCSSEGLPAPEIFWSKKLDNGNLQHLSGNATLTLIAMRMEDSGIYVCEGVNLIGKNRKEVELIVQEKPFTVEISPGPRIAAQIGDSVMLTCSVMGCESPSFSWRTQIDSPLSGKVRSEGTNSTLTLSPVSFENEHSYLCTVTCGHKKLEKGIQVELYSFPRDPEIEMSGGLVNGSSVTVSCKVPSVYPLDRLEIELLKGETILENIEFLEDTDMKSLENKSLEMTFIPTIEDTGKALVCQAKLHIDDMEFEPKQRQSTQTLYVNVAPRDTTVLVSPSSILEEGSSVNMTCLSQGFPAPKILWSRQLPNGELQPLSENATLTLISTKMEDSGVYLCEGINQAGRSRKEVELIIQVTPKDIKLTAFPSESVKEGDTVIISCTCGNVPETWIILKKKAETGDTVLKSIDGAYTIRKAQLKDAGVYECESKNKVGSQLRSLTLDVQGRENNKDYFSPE
Chain of UniProt P15144 (P15144 2-967): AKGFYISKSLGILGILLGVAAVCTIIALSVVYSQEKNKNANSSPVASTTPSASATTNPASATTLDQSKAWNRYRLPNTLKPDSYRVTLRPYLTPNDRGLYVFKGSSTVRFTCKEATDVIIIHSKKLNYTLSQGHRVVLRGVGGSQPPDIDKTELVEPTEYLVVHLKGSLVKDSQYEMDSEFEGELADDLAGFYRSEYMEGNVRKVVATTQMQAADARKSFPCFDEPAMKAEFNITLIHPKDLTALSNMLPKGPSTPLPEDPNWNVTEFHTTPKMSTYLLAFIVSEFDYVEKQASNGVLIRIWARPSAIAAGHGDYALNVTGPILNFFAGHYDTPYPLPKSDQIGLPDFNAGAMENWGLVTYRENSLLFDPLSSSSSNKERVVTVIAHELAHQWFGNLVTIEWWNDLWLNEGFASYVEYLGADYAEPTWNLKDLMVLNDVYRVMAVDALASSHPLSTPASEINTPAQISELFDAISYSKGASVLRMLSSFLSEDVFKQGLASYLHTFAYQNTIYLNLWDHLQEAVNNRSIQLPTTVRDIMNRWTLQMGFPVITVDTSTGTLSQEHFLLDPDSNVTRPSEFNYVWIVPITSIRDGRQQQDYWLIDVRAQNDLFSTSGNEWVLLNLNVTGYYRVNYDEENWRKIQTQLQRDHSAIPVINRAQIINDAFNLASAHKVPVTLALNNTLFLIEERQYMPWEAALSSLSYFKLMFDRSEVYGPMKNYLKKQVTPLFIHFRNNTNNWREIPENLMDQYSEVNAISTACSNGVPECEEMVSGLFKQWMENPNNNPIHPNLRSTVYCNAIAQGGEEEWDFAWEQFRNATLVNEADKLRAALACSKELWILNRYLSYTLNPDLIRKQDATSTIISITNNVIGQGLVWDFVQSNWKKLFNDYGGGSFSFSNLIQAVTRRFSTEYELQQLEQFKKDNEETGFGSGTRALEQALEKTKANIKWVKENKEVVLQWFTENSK

For the substance NGR peptide, the pKd in data set [1] was 3.52.
Consider VHP peptide, for which the negative-log Kd (pKd) with VCAM-1 (Homo sapiens) was 4.52.
